Laboratory results from article PMC6755802 (The Journal of Biological Chemistry, 2019).

T1: Super-2/IL-2Rβ binary complex (human, UniProt P60568;P14784)
T1 construct: human IL-2Rβ ectodomain, amino acids 1-214; also called stabilized Super-2/IL-2Rβ binary complex; source: baculovirus expression system, purified (nickel chromatography, SEC)
T1 chain 1: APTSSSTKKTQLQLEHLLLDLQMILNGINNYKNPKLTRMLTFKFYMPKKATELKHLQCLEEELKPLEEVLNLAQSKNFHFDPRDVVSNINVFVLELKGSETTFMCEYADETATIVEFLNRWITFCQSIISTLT
T1 chain 2: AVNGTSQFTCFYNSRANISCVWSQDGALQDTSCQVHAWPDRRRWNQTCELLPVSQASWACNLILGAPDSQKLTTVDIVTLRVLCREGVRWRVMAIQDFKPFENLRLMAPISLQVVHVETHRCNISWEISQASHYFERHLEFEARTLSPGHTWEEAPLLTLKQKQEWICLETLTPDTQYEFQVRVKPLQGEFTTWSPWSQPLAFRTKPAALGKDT


Assays:
[1] = biological target: T2, IL-2/IL-2Rβ binary complex (Homo sapiens, UniProt P60568;P14784); experiment: flow cytometry on cells; scFv displayed on yeast; 1 μM of the indicated biotinylated complex components in PBE buffer, 2 h at room temperature; detection with 50 nM SA-647; settings: one partner purified
T2 construct: human IL-2, amino acids 1-133; human IL-2Rβ ectodomain, amino acids 1-214; also called IL-2 BC; IL-2 binary complex; source: baculovirus expression system, purified (nickel chromatography, SEC)

[2] = biological target: T3, IL-2, biotinylated (for staining of yeast) (Homo sapiens, UniProt P60568, biotin (site not stated)); experiment: as above; settings: one partner purified
T3 construct: human IL-2, amino acids 1-133; also called interleukin-2; the cytokine; source: baculovirus expression system, purified (nickel chromatography, SEC)

[3] = biological target: T4, IL-2Rβ ectodomain, biotinylated (for staining of yeast) (Homo sapiens, UniProt P14784, biotin (site not stated)); experiment: as above; settings: one partner purified
T4 construct: human IL-2Rβ ectodomain, amino acids 1-214; also called the receptor; source: baculovirus expression system, purified (nickel chromatography, SEC)

[4] = biological target: T1, Super-2/IL-2Rβ binary complex; experiment: SPR; biotinylated scFv immobilised on Biacore SA chip at low density; analytes flowed 60 s; complexes pre-incubated 30 min at room temperature; 25 °C; HBS-P+ with 0.2% BSA; KD from equilibrium titration, 1:1 model; in Fig. 1D all proteins at 60 μM; settings: both partners purified

Binder	binding result [1]	binding result [2]	binding result [3]	Kd [4] [nM]
affinity-matured IL-2 binary complex stapler scFv, yeast-displayed (scFv, V domains shown, as the scFv of m6 with changes in the VH and VL CDR3 regions; also called amIL-2B stapler; amIL-2BC stapler; source: site-directed mutagenic library of IL-2B stapler) VH: QVQLQQSGPGLVKPSQTLSLTCAISGDSVSSNSATWNWIRQSPSRGLEWLGRTYYRSKWYDDYAVSVKSRITINPDTSKNQFSLQLNSVTPEDTAVYYCARATYGTYDYWGQGTLVTVSS VL: NFMLTQPHSASESPGKTVTISCTGSRGSIASNYVQWYQQRPGSAPTTVIYEDNQRPSGVPDRFSGSIDSSSNSASLTISGLKTEDEADYYCQSYDQNYHAVFGGGTQLTVL	binds	no binding (tested: 1 μM)	no binding (tested: 1 μM)	–
affinity-matured IL-2 binary complex stapler scFv, recombinantly expressed (scFv, V domains shown, VH of amIL-2B stapler; as the VH of m8 with changes in CDR3; 15-amino acid (Gly4Ser)3 linker; VL of amIL-2B stapler; as the VL of m8 with changes in CDR3; Biotinylated for immobilisation in SPR; also called amIL-2B stapler; amIL-2BC stapler; source: baculovirus system (pAcGP67A), purified (nickel chromatography, SEC)) VH: QVQLQQSGPGLVKPSQTLSLTCAISGDSVSSNSATWNWIRQSPSRGLEWLGRTYYRSKWYDDYAVSVKSRITINPDTSKNQFSLQLNSVTPEDTAVYYCARATYGTYDYWGQGTLVTVSS VL: NFMLTQPHSASESPGKTVTISCTGSRGSIASNYVQWYQQRPGSAPTTVIYEDNQRPSGVPDRFSGSIDSSSNSASLTISGLKTEDEADYYCQSYDQNYHAVFGGGTQLTVL	–	–	–	15
